Values belong to the compound of their own block, whether it stands above or below them.
Experiments:
Rabin8 (Rab3IP) 144-460 = Rabin8 (Rab3IP) 144-460 (UniProt Q96QF0); experiment: Ni2+-NTA pull-down by His-Rabin8; conditions: reference: non-phosphorylated Rab8a; sites T72
[1] = biological target: HIS-tagged Rabin8 (residues 144-460) (human) (UniProt Q96QF0)
LRRK2 = biological target: T1, LRRK2 (Homo sapiens, UniProt Q5S007, G2019S); experiment: in vitro kinase assay with recombinant LRRK2 and Rab10, inhibitor at […]; assay type: biochemical
T1 construct: GST-LRRK2 (residues 960-2527)
T1 sequence (Q5S007 960-2527 G2019S): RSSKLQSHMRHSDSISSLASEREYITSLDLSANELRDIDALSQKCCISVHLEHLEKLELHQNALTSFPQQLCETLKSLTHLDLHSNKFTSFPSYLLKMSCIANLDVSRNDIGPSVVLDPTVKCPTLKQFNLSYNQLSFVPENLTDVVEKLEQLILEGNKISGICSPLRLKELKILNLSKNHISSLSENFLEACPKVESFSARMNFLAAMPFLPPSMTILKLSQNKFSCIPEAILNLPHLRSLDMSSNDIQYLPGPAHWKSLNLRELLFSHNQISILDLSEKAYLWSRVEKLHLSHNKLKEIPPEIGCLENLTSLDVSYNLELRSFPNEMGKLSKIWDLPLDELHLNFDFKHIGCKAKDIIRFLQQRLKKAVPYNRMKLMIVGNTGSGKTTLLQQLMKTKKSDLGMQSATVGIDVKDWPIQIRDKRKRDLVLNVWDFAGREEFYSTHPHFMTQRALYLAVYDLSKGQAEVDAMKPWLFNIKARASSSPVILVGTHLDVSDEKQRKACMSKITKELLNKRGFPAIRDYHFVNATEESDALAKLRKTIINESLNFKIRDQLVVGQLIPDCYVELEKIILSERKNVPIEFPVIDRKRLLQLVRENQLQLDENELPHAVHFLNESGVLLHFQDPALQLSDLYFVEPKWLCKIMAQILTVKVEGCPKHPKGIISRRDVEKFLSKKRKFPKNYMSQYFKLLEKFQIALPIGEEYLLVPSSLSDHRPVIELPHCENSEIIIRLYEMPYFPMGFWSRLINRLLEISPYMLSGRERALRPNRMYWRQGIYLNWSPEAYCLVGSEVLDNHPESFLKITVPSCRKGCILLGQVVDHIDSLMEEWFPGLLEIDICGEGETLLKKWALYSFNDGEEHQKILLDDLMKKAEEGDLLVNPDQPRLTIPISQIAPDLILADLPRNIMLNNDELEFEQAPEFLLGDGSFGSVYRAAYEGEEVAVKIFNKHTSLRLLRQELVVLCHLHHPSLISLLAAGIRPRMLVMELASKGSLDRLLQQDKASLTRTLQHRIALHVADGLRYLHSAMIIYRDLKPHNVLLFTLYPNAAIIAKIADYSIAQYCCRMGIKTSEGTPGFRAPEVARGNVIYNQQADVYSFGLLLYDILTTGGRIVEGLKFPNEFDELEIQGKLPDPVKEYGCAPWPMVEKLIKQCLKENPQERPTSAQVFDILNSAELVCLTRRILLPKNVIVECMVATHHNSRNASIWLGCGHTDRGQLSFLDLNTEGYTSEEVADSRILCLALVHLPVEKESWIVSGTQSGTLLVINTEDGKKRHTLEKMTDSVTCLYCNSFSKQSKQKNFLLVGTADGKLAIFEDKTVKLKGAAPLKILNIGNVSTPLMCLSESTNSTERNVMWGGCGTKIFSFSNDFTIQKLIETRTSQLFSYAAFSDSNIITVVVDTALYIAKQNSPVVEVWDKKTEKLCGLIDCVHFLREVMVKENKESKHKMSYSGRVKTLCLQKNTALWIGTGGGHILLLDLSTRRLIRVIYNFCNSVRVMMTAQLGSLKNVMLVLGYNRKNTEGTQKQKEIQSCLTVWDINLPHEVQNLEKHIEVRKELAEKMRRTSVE

Chain of HIS-tagged Rabin8 (residues 144-460) (human) (Q96QF0 144-460): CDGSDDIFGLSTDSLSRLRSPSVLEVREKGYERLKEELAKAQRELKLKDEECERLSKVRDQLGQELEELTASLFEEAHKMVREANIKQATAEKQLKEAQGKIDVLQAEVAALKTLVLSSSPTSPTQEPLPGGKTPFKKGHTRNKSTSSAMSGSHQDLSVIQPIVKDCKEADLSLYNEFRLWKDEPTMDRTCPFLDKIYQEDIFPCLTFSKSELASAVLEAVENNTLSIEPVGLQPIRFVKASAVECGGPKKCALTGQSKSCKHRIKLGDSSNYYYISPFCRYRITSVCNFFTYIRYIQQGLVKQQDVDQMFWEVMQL

binding against the reference (Rabin8 (Rab3IP) 144-460): weaker
Compound: Rab8a 1-183 (from UniProt P61006) LRRK2-G2019S-phosphorylated, ion-exchange-enriched pT72-Rab8a

rate of Rabin8-catalyzed mant-GDP exchange (GEF assay with Rabin8 144-245, 2 μM), T72-phosphorylated against non-phosphorylated Rab8a (1-183): inhibition [1]: 4 fold
Compound: Rab8a (1-183) quantitatively phosphorylated pT72 (from UniProt P61006 1-183) (domain or fragment)

Compound: O=C(Nc1cccnc1)c1cc(-c2ccnc(F)c2)ccc1OCc1ccccc1 [GSK2578215A]
in vitro kinase assay with recombinant LRRK2 and Rab10, inhibitor at 2 μM (LRRK2): Inhibition of LRRK2-G2019S by GSK2578215A or HG-10-102-01 prevents phosphorylation.

Source: article PMC4769169 (eLife, 2016)
